Measurements from the DeepSol protein solubility set.

Assay: soluble on expression in E. coli; label from the status in PepcDB or PDB records
In the case of “MAHHHHHHMNKTKIESSYFTYQNNHSKIGNPILYKGEVIGMEIIDIRVKDDVEGLFNVCSCYLDNEHHAYNKCSESDIHYMQISSIRIIIKIVHNINILTGKKLHINLQDYVTPYPIKSAFIIKKVEHYSCNNINNKSFNEIQEHFYNNEKKLKFYNIFLYETDLQEFKEDIIFENPGMYLLCYTSNDSQSEYSAELSTILVNGNY”, the “soluble on expression in E. coli” value was “not soluble”. For “GYQALEKYSRDLTALARAGKLDPVIGRDTEIRRAIQILSRRTKNNPILLGDPGVGKTAIVEGLAIKIVQGDVPDSLKGRKLVSLDLSSLIAGAKYRGDFEERLKSILKEVQDAEGQVVMFIDEIHTVVGAGAVAEGALDAGNILKPMLARGELRCIGATTVSEYRQFIEKDKALERRFQQILVEQPS”, the “soluble on expression in E. coli” value was “soluble”. With “MGSDKIHHHHHHMGILVVGSVAFDSVETPFGRVENVLGGSATYFSTSASFFTDVSLVAVVGEDFPQEHVEFLNSRNIDLRGLAREGGKTFHWKGKYGYDLNEAQTLETHLNVFESFRPQIPAAYRDAEFLFLANIDPELQMEVLSQVEKPRVIACDTMNFWISSKPEALKAVIAKVDIFIINEGEARQFTQEANLTKAARKILAMGVKTLVIKRGEYGVLMFTDHSVFAAPAFPLEDVFDPTGAGDTFAGGFMGYLANTGDTSETGIRQAIIFGSVMASFNVEDFSLNRLKRLEYREIEDRYRSFKALTHFEGLAGG” the “soluble on expression in E. coli” value was “not soluble”. In the case of “MTKITYKVASEHPFPADAAAAAASLAAYEALDDVTKARVDQMVDWIMKNCLWQFHSRAWDRKRQNEGILGIAAKLLAGEPFTPETPEDRCYWVDSVTLQRAYLATCPWLATMSKGDIRALMKELHARVDYLTVTGSLNEELTDLHYLEHHHHHH”, the “soluble on expression in E. coli” value was “not soluble”. With “MSLKIIIAPAKIMKLDRDSFPVQSTPEFLKKTRILEKFLKSRTRDQLETLWHASDKVVEQSLFQLKNMDLDTNLTPAILAFSGIQYQYMAPDLFTQPALDYIQKNLRILSGFYGMLRPFDGICPYRLELNTKMVGFRDYSLYHFWDEDIANSLFKEDQVVINLASKQYMRLVKPYLNSARRMITVDFQELKNDKWKTVGVHAKMARGEMVRFMAEKQIKNPADLRDFHDFDFQFVPEVSSDDHYIFRTDFDFTRHEGHHHHHH” the “soluble on expression in E. coli” value was “soluble”. In the case of “MKKIAIIGGGIIGMTLANYLDPQKFDITVYDEGLGQATKASAGIISPWLSKRRNKKWYQLAREGAALFPKLVKDFQLTEDIYRQSGTVILRPAAALADLAHLAEERKQTAPEIGEITMLSAVQTAKFLPLLKETPSLFISGGGRLDGPAYLNHLQKRAEAKGVTFCSQRAHFRQLNQGWEIVTNSEKKSVDFLALTPGPHLKELLTTLNLSVDIRPQKGQLLVFETPFTNSQQWPVAMLDGEADLIPFNQGKILLGATHENEQAWDLEETVSAFQQLTSGTAPFLKEAEQLFKQPMHYRVGTRAYTSDFAPFFGPLPEMPHLVVASGLGSSGLTTGPFIGYQLAEYFNTGAFKGELYQKPLSQYVKNNPSL”, the “soluble on expression in E. coli” value was “not soluble”. For “MGSDKIHHHHHHMPVNIKQLAQEFDKKEIGITQGHRLCPGCGAPITVKFVMMIARHLGYEPVVGLATGCLEVSTSIYPYTAWSVPYIHNAFENVAATMSGVETAYKALKNKGKIPEDKKYAFIAFGGDGGTYDIGLQSLSGMLERGHKVLYVLYDNEGYMNTGNQRSGSTPPGSDTTTAPVGKKLPGKVQLKKNIVEIVAAHENVYAATASLSEPMDFFAKVEKALNFDGPSFLAVFSPCVRFWRVNDDKTVEISKLAVETKYWPLYEVERGVYRVTRKPRQFKPVEEFLKAQGRFRKLLSRPDAKEIVDELQEYVDRRWERLLTLEEVTKDKPIR”, the “soluble on expression in E. coli” value was “not soluble”. With “MGSDKIHHHHHHMFIKNAWYVACRPEEIQDKPLGRTICGEKIVFYRGKENQVAAVEDFCPHRGAPLSLGYVEDGNLVCGYHGLVMGCDGKTVSMPAQRVNGFPCNKAYAVVEKFGFIWVWPGEKALADEAKLPTLEWADHPEWSYGGGLFHIQCDYRLMIDNLMDLTHETYVHSSSIGQKEIDEALPVTKVEGDHVITERYMENVIAPPFWQMALRGNHLADDVPVDRWQRCHFFAPSNVHIEVGVAHAGHGGYHAPKDKKVSSIVVDFITPETETSHWYFWGMARNFQPDNAELTDQIREGQGKIFTEDLEMLEQQQQNILNNPHRKLLMLNIDAGGVQSRKVIDRLLAEENKTPPETSTQKFPNIRII” the “soluble on expression in E. coli” value was “not soluble”. For “MSVTQIDLDDEALADVMRIAAVHTKKEAVNLAMRDYVERFRRIEALARSRE”, the “soluble on expression in E. coli” value was “soluble”. In the case of “MAEPWGNELASAAARGDLEQLTSLLQNNVNVNAQNGFGRTALQVMKLGNPEIARRLLLRGANPDLKDRTGNAVIHDAARAGFLDTLQTLLEFQADVNIEDNEGNLPLHLAAKEGHLRVVEFLVKHTASNVGHRNHKGDTACDLARLYGRNEVVSLMQANGAGGATNLQ”, the “soluble on expression in E. coli” value was “soluble”. In the case of “MQSRWNDTEAETFAAEARARGEPAELGLRVYSSRLIGQDPDLVLHGGGNTSVKIPSPEGMLIHVKGSGWDLGDIEAPGLPAMHLAPLLETRDVPQMSDEEMVALLRAHLLDPAAPTPSVEALLHAYMPQAFVDHTHATAILALADQADMEPVVAELFGGRVGWVPYVMPGYALSHACREAFARDPSVEGLWLEQHGLFTFAETARESYERMIGFVTMAEEHLAARGVPLPGPEANDGTAPERLAADLRAALAARGALGADPSLDFRSSPSIRSYLGRADLPELARRGTATPDHVIRLKPFPMLLEPTAGPAEIEAALDAFEAEYRAYFDRNAPNASEAKIMLDPLPRVVLVPGLGGWGVGANGKAARIAGDLLEQTSRVVNAAETYRRFTPISEGDLFDMEYWSLEQAKLRKA”, the “soluble on expression in E. coli” value was “not soluble”. With “MEETSMGKLSICRQNVPMKSMPSRLPKIDQAGVARRLEALRDALGLDKGEFAQSFGLDPSSYSKVLQGKKPLKSEYGHAIAEGWGVSMDFIYRGDMSRIDETLRTKVMQNLTAPMR” the “soluble on expression in E. coli” value was “not soluble”. For “MGSDKIHHHHHHMANFKVGCGKAMIQFSASELPIREFKSKLDDLYCRVMLISGKNSWALISFDLTSLRAAAIKRYQELAARLLAIDSNQIWVTVTHTFAAPHLPSTTDSMARKSAYRLIDEKLKESLMLACRQAHEDLQAVQVGQVNINCPLNVNRNVLTKQGWWLGRNLEGYSNHQLRVLAFRKADKTTNLLVNYDIQQSVLDHVTDDHGEQMISSDLMGNGIKAYEGNDRVAIFIPGCAGDQRPLFTGKANQPFAVNKALLANQATIVTEKLEWAVQNVHDWQPLRQLRSSQLPVIVPTQVQQRSTFEIKPTKTYDFQSTKQTTTLHLWALRLNQYEIVGTEPELNSSFGDSCRQALAGNTNTMIATLVNGAAKYLPEQIDFERITYQSMNTQLGLTADQCMLEACVQLRQKISEEEY”, the “soluble on expression in E. coli” value was “not soluble”. For “MGSDKIHHHHHHMSVGEAMDTEVRAAAQAVCLAFNENPEAVEPRVQAAIAAAAARINRYPFDAEPRVMRKLAEHFSCPEDNLMLVRGIDECFDRISAEFSSMRFVTAWPGFDGYRARIAVSGLRHFEIGLTDDLLLDPNDLAQVSRDDCVVLANPSNPTGQALSAGELDQLRQRAGKLLIDETYVDYSSFRARGLAYGENELVFRSFSKSYGLAGLRLGALFGPSELIAAMKRKQWFCNVGTLDLHALEAALDNDRAREAHIAKTLAQRRRVADALRGLGYRVASSEANFVLVENAAGERTLRFLRERGIQVKDAGQFGLHHHIRISIGREEDNDRLLAALAEYSDHS”, the “soluble on expression in E. coli” value was “not soluble”. For “MGSDKIHHHHHHMKESLRILHINDLHSHFEAYPKIKRFFAEHSKTQREVLRFDIGDNVDKSHPLTDVSAGRVNVDLMNDLGIDFATIGNNEGIGLAKAEINQLYHKADFQVILGNLRDKKGRPTWAQPYVIYETKAGTKLALLAYTFPYYWTYVPNGWQVLDAISSLKKDLENPEVAAADFRILLSHLGIRLDEKIARQVPEIDLIIGAHTHHVFEEGEVVNGTYLAAAGRYGDHVGQIDLDFEDHSLTNIAIEAVPTSDLDSEKEDAAFVAHLFEEGEKLLAENLICKLSRQPSLKECADLVMEAMKKSAAADLAIINTGLVVEPFSQNLTKADLHKSLPHQMRLVKFQVTQTELLEICHDIFSQADLLANQQIRGMGFRGKQFGKVVTSGFTYKNGKIVYNNKAIGRKDKMSLVLVDQYYFAPYFNSLTSRKGQLLFPDLLRQTVEKYLRGDL”, the “soluble on expression in E. coli” value was “not soluble”. In the case of “MNQYLAVTSNGMENLLVEELTKLGIENAKPVQAGVKFKATNEQIYRCCLWSRLASRFVRVLSEFTCNDDMDLYLSTSSINWVNQFHSSKRFVVDFNGTNREIRNSQYGAMKVKDGIVDCFEKKGLPRPNISKERPDIRVHVRLHKDKAILGVDMVGSGLHQRGYRPESGRAPLRETLAAAIIMRCGWDGHQPLLDPMCGSGTLLIEAAMMAANMAPGVKRKQWCFESLEDFEPDTWAEIKSEANVQARRGVKKVDAKFFGFDNDPKVLKVAQENARRAGVEELIEFAQGDVATITRLSGFENGVIVSNPPYGERLGTEPGLIALYTAFGGQLKAEFGGCKASIFSSSDELLSCLRMRADKQFKLNNGALPCHQKNYSIAERSADEVKGADTNTQIAPDFSNRLKKNIGKIGKWARKEKLDCYRIYDADLPEYNVAIDVYGDQIVIQEYAAPKNIPEEKAKRRLTDIIRATIQVTGVEANKVVLKVREKQKGRSQYQK”, the “soluble on expression in E. coli” value was “not soluble”. For “MSLTSLYTGTFVDTPTPAGLRVRRNHLLAVSAQGAIAHIAPVSDPASQALLASAPPPTALGRHSFFLPTYADLHLHAAQYLYAGTGLDLPLLEWLERYAYRAEERVDADEQLAERLYGRLVQRLRENGTGCVVFFGTIGVQANLILARKAQEAGIRAFIGKLSMDESPRPSYGEASPAASLSSLNSFLDSMESYLSQFPSHRRLVQPIITPRFVPVCSDELLQGLAKVAQDRNVRLQSHMCEGRDQIDMSLKTKGLDDEKVFDKFGLLGPQTLQAHVTYLDDKLIPLIKERGVTIAHCPLSNQYLSERQFPLREALDASLSLGLGTDIAGGYSPSIHTAMRQAVIISRMREGDRCESLGCSFGTVKKEEEGGGRNLRVDWKEAVWAATRGGKAGMGLGGALEVGMEFDVQLIELASEENPTGTGPLDLFDLADSQVDTDTDEWWFDALERWWSNGDERNRKGMWVQGAKIAEGHHHHHH”, the “soluble on expression in E. coli” value was “soluble”. With “MGSDKIHHHHHHMQRSPIRRSNYTPRNEKGLEGVIELQLNVVSDYLHVGSGKYDVEVMRSVSDVKRLVEDYLSGGNKRIPNNVDQYFSMVAFLMVRNKDNVVIPGSTIKGMVRSRLELSVPGSCYIVTGHSTSSSAVYKRIFNPDPNRGSDRFDVNKFPQVCPVCDLLGNMGLASRVSLSDFVMTSGKVDYVNVKGRDYEVVTKGSIFAGKVLYKSLKPVEIGMLLYGFGFVKDCNGSKVMLLGRFKFSDKRFGRVKFSLKTPIADCNKLVSDFVKQFNPRYINEEW” the “soluble on expression in E. coli” value was “not soluble”. For “MGNIGSPPKFDEYPNGNEEPRRVLRLNVYFDNPVQNKDGAYDDRGGFWAPVDWWHRDAERWATLFAKGMRVAVRGHLERDDWTDGDGEPHTTYKVDARSVGILPYRLDAVHLSPLEHHHHHH”, the “soluble on expression in E. coli” value was “not soluble”. In the case of “MSLTEEFVNKEDALKNYNAKEFRTPDGYTSDMILTTVKELNGKPTLHILLIKRSLTNAEGKPNMEGGKWAVPGGFVDENESAEQAAERELEEETSLTDIPLIPFGVFDKPGRDPRGWIISRAFYAIVPPEALEKRAAGDDAAEIGLFPMTEALELPLAFDHLDMLKKAFSAITEEFLLTTAIRDFLPETFSAELLYQTLEGCTKPGILPDEVEFMENIEYLPYLEKVGDLYRFNADAEAGSIYFEGHHHHHH”, the “soluble on expression in E. coli” value was “soluble”.
